Publication PMC6186450

Target: Human Plasma Fibronectin (human)
Assay: ITC

Substance	Kd [nM]	stoichiometry N	dH [kcal/mol]
10 kDa PEG-FUD (peptide)	4.6		
20 kDa PEG-FUD (peptide)	10	1.63	
40 kDa PEG-FUD (peptide)	14.7		-32.5
Functional Upstream Domain (FUD) peptide	6		
